# Experimental data published in the nanobody polyreactivity screen of Harvey et al. (2022).
# Test: yeast display, Sf9 membrane polyspecificity reagent, FACS + sequencing; frameworks hold sequencing errors
# Procedure, shortened: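 After 36–48 hours of galactose induction, yeast (Saccharomyces cerevisiae BJ5465) displaying a synthetic nanobody library were stained at 4 °C for 1 hour with 10% biotinylated, detergent-solubilized Sf9 membrane reagent. Streptavidin microbeads enriched the stained cells before FACS sorting into low and high (top ~1%) gates on anti-HA and streptavidin fluorescence. Each clone's polyreactivity label reflects its gate of origin.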
row,Sequence,polyreactivity (PSR sort gate)
1,QVQLVESGGGLVQAGGSLRLSCAASGSIFTVNAMGWYRQAPGKERELVAAISSGGSTHYADSVKGRFTISRDNAKNTVYLQMNSLKPEDTAVYYCAAVYVPYYGYSTRYDYWGQGTQVTVSS,low polyreactivity
2,QVQLVESGGGLVQAGGSLRLSCAASGSIFTVNAMGWYRQAPGKERELVATITNGGGTYYADSVKGRFTISRDNAKNTVYLQMNSLKPEDTAVYYCAARTWGHYDYWGQGTQVTVSS,low polyreactivity
3,QVQLVESGGGLVQAGGSLRLSCAASGSIFTVNAMGWYRQARGKERELVAAISSGGSTHYADSVKGRFTISRDNAKNTVYLQMNSLKPEDTAVYYCARDRPGDYAGYDYWGQGTQVTVSS,low polyreactivity
4,QVQLVESGGGLVQAGGSLRLSCAASGSIFTVYAMGWYRQAPGKERELVAAISSSGGTTYYADSVKGRFTISRDNAKNTVYLQMTSLKPEDTAVYYCAAPTHSPYDYWGQGTQVTVSS,low polyreactivity
5,QVQLVESGGGLVQAGGSLRLSCAASGSIFTVYGMGWYRQAPGKERELVAAISRSGGSTYYADSVKGRFTISRDNAKNTVYLQMNSLKPEDTAVYYCNADLVYNTLIYSGGDEYDYWGQGTQVTVSS,high polyreactivity
6,QVQLVESGGGLVQAGGSLRLSCAASGSIFTWYAMGWSRPAPGKERELVAAITRGGSTYADSVKGRFTISRDNAKNTVYLQMNSLKPEDSAVYYCNAVYGVYDFNYWGQGTQVTVSS,low polyreactivity
7,QVQLVESGGGLVQAGGSLRLSCAASGSIFTWYAMGWYRQAPGKEREFVDSITGSGGSTYYADSVKGRFTISRDNAKNTVYLQMNSLKPEDTAVYYCAKGHVYSSYRYRLRSTAFGYWGQGTQVTVSS,high polyreactivity
8,QVQLVESGGGLVQAGGSLRLSCAASGSIFTYNAMGWYRPAPGKERELVAAINTSGSTNYADSVKGRFTISRDNAKNTVYLQMNSLKPEDTAVYYCAAGIVVTGYDYWGQGTQVTVSS,low polyreactivity
9,QVQLVESGGGLVQAGGSLRLSCAASGSIFTYNAMGWYRQAPGKERELVAAITRSGGRTYYADSVKGRFTISRDTAKNTVYLQMNSLKPEATAVYYCNTLRVGWGQGTQVTVSS,high polyreactivity
10,QVQLVESGGGLVQAGGSLRLSCAASGSIFTYNAMGWYRQAPGKERELVAVISWSGGSTYYADSVKGRFTISRDNAKNTVYLQMNSLKPEDTAVYYCNAYYYRPYGNKYGYWGQGTQVTVSS,high polyreactivity
11,QVQLVESGGGLVQAGGSLRLSCAASGSIFTYNVMGWYRQAPGKERELVASISWSGGRTYYADSVKGRFTISRDNAKNTVYLQMNSLKPEDTAVYYCNKVRPPVYFPNRDYWGQGTQVTVSS,low polyreactivity
12,QVQLVESGGGLVQAGGSLRLSCAASGSIFTYYAMGWYRPAPGKERELVATITRRGGRTYYADSVKGRFTISRDNAKNTVYLQMNSLKPEDTAVYYCATRIRTVAYNYWGQGTQVTVSS,high polyreactivity
13,QVQLVESGGGLVQAGGSLRLSCAASGSIFTYYAMGWYRQAPGKERELVADISKRGGSTYYADSVKGRFTISRDNAKNTVYLQMNSLKPEYTAVYYCATRARYTWRAFEYWGQGTQVTVSS,low polyreactivity
14,QVQLVESGGGLVQAGGSLRLSCAASGSIFVANAMGWYRQAPGKETELVAAISQDGGTKYYADSVKGRFTISRDNAKNTVYLQMNSLKPEDTAVYYSAAEYPSFPEDDEYDYWGQGTQVTVSS,low polyreactivity
15,QVQLVESGGGLVQAGGSLRLSCAASGSIFVAYAKGWYRPAPGKERELVAAISSSGGTTYYADSVKGRFTISRDNAKITVYLQMNSLKPEDSAVYYCAARDYKYYYWGQGTQVTVSS,high polyreactivity
16,QVQLVESGGGLVQAGGSLRLSCAASGSIFVDNAMGWYRQAPGKERELVAVITLRSGSTNYADSVKGRFTISRDNAKNTVYLQMNSLKPEDTAVYYCAADDTYHDYQRDTDDDYWGQGTQVTVSS,low polyreactivity
17,QVQLVESGGGLVQAGGSLRLSCAASGSIFVDYTMGWYLQAPGKERELVARITSGGSTYYADSVKGLFTISRDNAKNTVYLQMIRLNPEDTAVYYCAARPYYRYRNSWREQYYYWGQGTQVSVSS,high polyreactivity
18,QVQLVESGGGLVQAGGSLRLSCAASGSIFVEYAMGWYRQAPGKERELVAGISSGGITSYADSVKGRFTISRDNAKNTVYLQMNSLKPEDTAVYYCATDPYKWFFSSYYLLQEVEYWGQGTQVTVSS,low polyreactivity
19,QVQLVESGGGLVQAGGSLRLSCAASGSIFVFYARGWSRQAPGKERELVAAITSGGRTYYADSVKGRFTISRDNAKNTVYLQMNSLKPEDTAVYYCNAVRFYSIGLGQDDYWGQGTQVTVSS,low polyreactivity
20,QVQLVESGGGLVQAGGSLRLSCAASGSIFVGNAMGWYRQAPGKEREFVASISWDGTTYYADSVKGRFTISRDNAKNTVYLQMNSLKPEDTAVYYCAADVSTYGAQATEGTDLEYDYWGQGTLVTVSS,low polyreactivity

row,Sequence,polyreactivity (PSR sort gate)
1,QVQLVESGGGLVQAGGSLRLSCAASGSIFVGNAMGWYRQAPGKERELVAAISWSGGSTYYADSVKGRFTISRDNAKNTVYLQMNSLKPEDTAVYYCATQLSIRMDYWGQGTQVTVSS,high polyreactivity
2,QVQLVESGGGLVQAGGSLRLSCAASGSIFVGNAMGWYRQAPVKERELVADINVTGGTTYYADSVKGRFTISRDNAKNTVYLQMNSLKPEDTAVYYCAARQSIFYSWTGVEYYYWGQGTQVTVSS,low polyreactivity
3,QVQLVESGGGLVQAGGSLRLSCAASGSIFVGNTMGWYRQAPGKERELVAAITWSGGRTYYADSVKGRFTISRDNAKNNVYLQMHSLKPEDTAVYYLKALAYYIRYYYWGKGTQVTVSS,high polyreactivity
4,QVQLVESGGGLVQAGGSLRLSCAASGSIFVGYAMGWYRQAPGKERELVAAISKRGGGTYYADSVKGRFTISRDNAKNTVYLQMNSLKPEDTAVYYCNAVTVHLDVASGYYYWGQGTQVTVSS,high polyreactivity
5,QVQLVESGGGLVQAGGSLRLSCAASGSIFVGYAMGWYRQAPGKERELVAAISQRGGITYYADSVKGRFTISRDNAKNTVYLQMNSLKPEDTAVYYCAAPRYLSYVRRYDYWGQGTQVTVSS,high polyreactivity
6,QVQLVESGGGLVQAGGSLRLSCAASGSIFVGYAMGWYRQAPGKERELVAAISRSGGTTYYADSVKGRFTISRDTAKNTVYLQMNSLKPEDTAVYYCAAERWAYYRSGLWWPYDYWGQGTQVTVSS,high polyreactivity
7,QVQLVESGGGLVQAGGSLRLSCAASGSIFVGYAMGWYRQAPGKERELVAAITSGGNTNYADSVKGRFTISRDNAKNTVYLQMNSLKPEDTAVYYCNKDQGDGLRSQLGTDATYDYWGQGTQVTVSS,low polyreactivity
8,QVQLVESGGGLVQAGGSLRLSCAASGSIFVGYAMGWYRQAPGKVRELVAAISRRGGSTYYADSVKGRFTISRDNAKNTLYLQMNSLKPEDTAVYYCAARQSTSATSGYYSWGQGTQVTVSS,high polyreactivity
9,QVQLVESGGGLVQAGGSLRLSCAASGSIFVGYAMGWYRQARGKERELVAAITGSGTRTYYADSVKGRFTISRDNAKNTVYLQMNSLKPEDTAVYYCAAVTYHGNPSEYYPDTVGFYYWGQGTQVTVSS,low polyreactivity
10,QVQLVESGGGLVQAGGSLRLSCAASGSIFVGYGAMGWYRQAPGKERELVAAITSGNSTYYADSVKGRFTISRDNAKNTVYLQMNSLKPEDTAVYYCAARGFLKYVTEFDYWGQGTQVTVSS,low polyreactivity
11,QVQLVESGGGLVQAGGSLRLSCAASGSIFVHYAMGWYRQAPGKERELVAAITSSGGRTYYADSVKGRFTISRDNAKNTVYLQMNSLKPEDTAVYYCNAAKYLYRHGFLSAGDMYYWGQGTQVTVSS,high polyreactivity
12,QVQLVESGGGLVQAGGSLRLSCAASGSIFVHYDMGWYRPAPGKERELVADIDYSGGSTYYADSVKGRFTISRDNAKNTVYLQMNSLKPEDTAVYYCAAERRRWGLDYYYWGQGTQVTVSS,high polyreactivity
13,QVQLVESGGGLVQAGGSLRLSCAASGSIFVKNAMGWYRQAPGKERELVARSSFSGGSTYYADSVKGRFTISRDNAKNTVYLQMNSLKPEDTAVYYCAVDGGEFSSYGYWGQGTQVTVSS,low polyreactivity
14,QVQLVESGGGLVQAGGSLRLSCAASGSIFVKNVMGWYRQAPGKERELVAAISSSGGRTYYADSVKGRFTISRDNAKNTVYLQMNSLKPEDTAVYYCNKAYPGRRDGSYDYWGQGTQVTVSS,high polyreactivity
15,QVQLVESGGGLVQAGGSLRLSCAASGSIFVKYAMGWYRQAPGKERELVAAISRNGGSTYYADSVKGRFTISRDNAKNTVYLQMNSLKPEDTAVYYCNKVRPGWTYEYGYWGQGTQVTVSS,high polyreactivity
16,QVQLVESGGGLVQAGGSLRLSCAASGSIFVKYAMGWYRQAPGKERELVAAITTGVGSTYYADSVKGRFTISRDNAKNTVYLQMNSLKPEDTAVYYCAAETIDYWYILEYDYWGQGTQVTVSS,low polyreactivity
17,QVQLVESGGGLVQAGGSLRLSCAASGSIFVLNAMGWYRQAPGKERELVAAITGTGDRTYYADSVKGRFTISRDNAKNTVYLQMNSLKPEDTAVYYCAATVGDAYYEYDYWGQGTQVTVSS,low polyreactivity
18,QVQLVESGGGLVQAGGSLRLSCAASGSIFVLYAMGWYRQAPGKERELVAAINYDGASTYYADSVKGRFTNSRDNAKNTVYLQMISLKREDTAVYYCAASWQFNIDVQLYLFEYWGQGTQVTVSS,low polyreactivity
19,QVQLVESGGGLVQAGGSLRLSCAASGSIFVNNAMGWYRQAPGKERELVAAIRRGSSTNYADSVKGRFTISRDNAKNTVYLQMNSLKPEDTAVYYCAADHVDDEAQNYDYWGQGTQVTVSS,low polyreactivity
20,QVQLVESGGGLVQAGGSLRLSCAASGSIFVPYAMGWYRQAPGKERELVAAINSGGGTDYADSVKGRFTISRDNAKNTVYLQMNSLKPEDTAVYYCAKSRVAYRGWDHKYYIYDYWGQGTQVTVSS,low polyreactivity
